Read-outs that look alike come from different tables or passages of the source.
T1: mouse CLDN18.2 (mouse, UniProt P56857 10-264)
T1 construct: over-expressed on HEK293T cells by lentivirus; also called mCLDN18.2; murine CLDN18.2
T1 chain: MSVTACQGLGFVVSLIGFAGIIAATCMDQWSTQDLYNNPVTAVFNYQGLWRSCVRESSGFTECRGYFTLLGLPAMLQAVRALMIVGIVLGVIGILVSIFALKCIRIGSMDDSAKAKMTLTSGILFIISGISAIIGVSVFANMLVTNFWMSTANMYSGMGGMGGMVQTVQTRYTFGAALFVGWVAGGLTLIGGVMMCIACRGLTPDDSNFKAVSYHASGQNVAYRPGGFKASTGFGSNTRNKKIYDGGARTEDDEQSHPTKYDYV


Assays:
human CLDN18.2 [1] = biological target: T2, human CLDN18.2 (human); test: imaging cytometry (% fluorescent cells), HEK293T-hCLDN18.2 cells
T2 construct: over-expressed on HEK293T or OCUM-1 cells by lentivirus; KATO-III and NUGC4 gastric cancer cells express it naturally; also called hCLDN18.2; hCLDNA18.2
Experimental: (§1) 10,000 cells were plated in 100 μL of DMEM containing 10% FBS per well in a flat-bottomed 96-well plate. After the cells adhered or were settled to the bottom of the wells overnight, the supernatant was removed on the next day. 3-Fold gradient dilution of antibody was performed by diluting 1/3 of the total volume (i.e., 100 μL) in 200 μL of DMEM. 100 μL of the diluted antibody (the supernatants of fused clones or subclones was used in the screening) was added to each well of the cell plate, 100 μL of DMEM was added to the corresponding negative control well, and incubation was carried out for 1 hour at room temperature. After removing the supernatant, 100 μL of secondary antibody (5 μg/mL, diluted in DMEM) was added to each well, and incubated at room temperature for 0.5 hours. The supernatant was removed after staining, followed by washing with PBS once. 100 μL of PBS was added to each well, and then reading was carried out on the cytometer.
(§2) A full-field scanning cytometer (Nexcelom, Celigo® Image Cytometer) was used to measure the readings of the experimental plate. During the measurement, high-speed scanning imaging of the cells in the well was simultaneously performed in the green fluorescent channel corresponding to the secondary antibody and in the bright field channel. The cells that bound the antibody were counted in the image obtained from the green fluorescent channel under the parameters set in accordance with the morphology and fluorescence intensity of the fluorescently labeled cells, and the adhered cells were counted in the image obtained from the bright field channel under the parameters set in accordance with the morphology of the cells. […] The data analysis was performed using GraphPad.

human CLDN18.2 [2] = biological target: T2, human CLDN18.2; test: as above; remark: listed apart in the source
Experimental: as §1, §2

human CLDN18.2 [3] = biological target: T2, human CLDN18.2; test: cell-based or functional assay
human CLDN18.2 [4] = biological target: T2, human CLDN18.2; test: cell-based or functional assay; remark: listed apart in the source
human CLDN18.2 [5] = biological target: T2, human CLDN18.2; test: cell-based or functional assay; remark: listed apart in the source
human CLDN18.2 [6] = biological target: T2, human CLDN18.2; test: cell-based or functional assay; remark: listed apart in the source
human CLDN18.2 [7] = biological target: T2, human CLDN18.2; test: cell-based or functional assay; remark: listed apart in the source
mouse CLDN18.2 = biological target: T1, mouse CLDN18.2; test: imaging cytometry (% fluorescent cells), HEK293-mCLDN18.2 cells
Text: (§3) HEK293T-hCLDN18.2 and OCUM-1-hCLDN18.2 expressing human CLDN18.2 (hCLDN18.2), or HEK293T-mCLDN18.2 expressing mouse CLDN18.2 (mCLDN18.2) and the corresponding negative control cell line HEK293T were used; or HEK293T-hCLDN18.1 and CHOS-hCLDN18.1 expressing human CLDN18.1 (hCLDN18.1) were used. DyLight488 goat anti-mouse IgG (Abcam, Catalog No. ab97015) or DyLight488 goat anti-human IgG (Abcam, Catalog No. ab97003) was used as secondary antibody. Binding curves were generated by using the following method.
as §1
(§4) A full-field scanning cytometer (Nexcelom, Celigo® Image Cytometer) was used to measure the readings of the experimental plate. During the measurement, high-speed scanning imaging of the cells in the well was simultaneously performed in the green fluorescent channel corresponding to the secondary antibody and in the bright field channel. The cells that bound the antibody were counted in the image obtained from the green fluorescent channel under the parameters set in accordance with the morphology and fluorescence intensity of the fluorescently labeled cells, and the adhered cells were counted in the image obtained from the bright field channel under the parameters set in accordance with the morphology of the cells.

human CLDN18.2 [8] = biological target: T2, human CLDN18.2; test: imaging cytometry (% fluorescent cells), OCUM1-hCLDN18.2 cells
Text: as §3, §1, §4

human CLDN18.1 [9] = biological target: T3, human CLDN18.1 (human, UniProt P56856 1-261); test: imaging cytometry (% fluorescent cells), CHOS-hCLDN18.1 cells
T3 construct: over-expressed on HEK293T or CHOS cells by lentivirus; also called hCLDN18.1
Text: as §3
(§5) 10,000 cells were plated in 100 μL of DMEM containing 10% FBS per well in a flat-bottomed 96-well plate. After the cells adhered or were settled to the bottom of the wells overnight, the supernatant was removed on the next day. […] 100 μL of PBS was added to each well, and then reading was carried out on the cytometer.
as §4, with “During the measurement, high-speed scanning imaging of the cells in the well was simultaneously performed in the green fluorescent channel corresponding to the secondary antibody and in the bright field channel.” left out

human CLDN18.1 [10] = biological target: T3, human CLDN18.1; test: imaging cytometry (% fluorescent cells), HEK293-hCLDN18.1 cells
Text: as §3, §5
as §4, with “During the measurement, high-speed scanning imaging of the cells in the well was simultaneously performed in the green fluorescent channel corresponding to the secondary antibody and in the bright field channel.” left out

human CLDN18.2 [11] = biological target: T2, human CLDN18.2; test: imaging cytometry (% fluorescent cells), HEK293-hCLDN18.2 cells
Text: as §3, §1, §4

T3 sequence (P56856 whole entry): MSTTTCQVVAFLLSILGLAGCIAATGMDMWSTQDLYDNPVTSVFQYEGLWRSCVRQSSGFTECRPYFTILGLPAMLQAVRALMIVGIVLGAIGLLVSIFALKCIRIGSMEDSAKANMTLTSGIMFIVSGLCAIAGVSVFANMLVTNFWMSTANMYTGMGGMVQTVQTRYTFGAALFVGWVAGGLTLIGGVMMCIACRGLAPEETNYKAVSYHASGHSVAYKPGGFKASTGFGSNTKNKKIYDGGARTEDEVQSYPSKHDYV

Binder | EC50 (human CLDN18.2 [1]) [µg/mL] | EC50 (human CLDN18.2 [2]) [µg/mL] | ADCC EC50, KATO-III target cells, human PBMC effectors (human CLDN18.2 [3]) [µg/mL] | CDC EC50, KATO-III target cells, human serum (human CLDN18.2 [4]) [µg/mL] | CDC EC50, HEK293T-hCLDN18.2 target cells, human serum (human CLDN18.2 [5]) [µg/mL] | CDC EC50, KATO-III target cells, human serum (human CLDN18.2 [5]) [µg/mL] | ADCC EC50, HEK293T-hCLDN18.2 target cells, human PBMC effectors (human CLDN18.2 [6]) [µg/mL] | ADCC EC50, KATO-III target cells, human PBMC effectors (human CLDN18.2 [6]) [µg/mL] | ADCC EC50, NUGC4 target cells, human PBMC effectors (human CLDN18.2 [6]) [µg/mL] | Internalization percentage (%), HEK293T-hCLDN18.2 cells, flow cytometry, 10 µg/mL antibody (human CLDN18.2 [7]) [%] | EC50 (mouse CLDN18.2) [µg/mL] | EC50 (human CLDN18.2 [8]) [µg/mL] | EC50 (human CLDN18.1 [9]) [µg/mL] | EC50 (human CLDN18.1 [10]) [µg/mL] | EC50 (human CLDN18.2 [11]) [µg/mL]
44F7-chIgG1 (antibody, V domains shown, human-mouse chimeric antibody, human IgG1/kappa constant regions; also called parental chimeric antibody) VH: QVQLQQSGAELVRPGASVKMSCKASGYTFTSYNMHWVKQAPRQGLEWIGTIYPGNGDTSYNQKFKGKATLTVDKSSSTAYMQLSSLTSEDSAVYFCARGGYYGNSLDYWGQGTTLTVSS VL: DIQMTQSPSSLTVTAGEKVTMSCKSSQSLLNSGNQKNYLTWYQQKPGQPPKLLIYWASTRESGVPDRFTGSGSGTDFTLTISSVQAEDLAVYYCQNAYYYPFTFGSGTKLEIKR | 0.027 | 0.012 | 0.0117 | 0.52 | 0.6 | 0.18 | 0.0078 | 0.099 | 0.047 | -1.5 |  |  |  |  | 
175D10 (antibody, human IgG1, kappa, V domains shown) VH: QVQLQQPGAELVRPGASVKLSCKASGYTFTSYWINWVKQRPGQGLEWIGNIYPSDSYTNYNQKFKDKATLTVDKSSSTAYMQLSSPTSEDSAVYYCTRSWRGNSFDYWGQGTTLTVSS VL: DIVMTQSPSSLTVTAGEKVTMSCKSSQSLLNSGNQKNYLTWYQQKPGQPPKLLIYWASTRESGVPDRFTGSGSGTDFTLTISSVQAEDLAVYYCQNDYSYPFTFGSGTKLEIKR | 0.536 | 0.035 | 0.788 | 34.8 | 18.2 |  | 0.058 | 2.4 |  |  | 0.81 | 6.54 |  |  | 
7004-09hu09 (antibody, human IgG1, kappa, V domains shown, humanized antibody of murine 44F7, human IgG1/kappa constant regions) VH: QVQLVQSGAEVKKPGASVKVSCKASGYTFTSYNMHWVRQAPGQGLEWMGTIYPGNGDTSYNQKFQGRVTMTRDKSTSTVYMELSSLRSEDTAVYFCARGGYYGNSLDYWGQGTLVTVSA VL: DIVMTQSPDSLAVSLGERATINCKSSQSLLNSGNQKNYLAWYQQKPGQPPKLLIYWASTRESGVPDRFSGSGSGTDFTLTISSLQAEDVAVYYCQNAYYYPFTFGQGTKLEIKR |  | 0.051 | 0.0028 | 0.33 |  |  |  |  |  |  |  |  |  |  | 
7004-09hu10 (antibody, human IgG1, kappa, V domains shown, humanized antibody of murine 44F7, human IgG1/kappa constant regions) VH: QVQLVQSGAEVKKPGASVKVSCKASGYTFTSYYMHWVRQAPGQGLEWMGTIYPGNGDTSYNQKFQGRVTMTRDKSTSTVYMELSSLRSEDTAVYFCARGGYYGNSLDYWGQGTLVTVSA VL: DIVMTQSPDSLAVSLGERATINCKSSQSLLNSGNQKNYLTWYQQKPGQPPKLLIYWASTRESGVPDRFSGSGSGTDFTLTISSLQAEDVAVYYCQNAYYYPFTFGQGTKLEIKR |  | 0.047 | 0.0033 | 0.27 |  |  |  |  |  |  |  |  |  |  | 
7004-09hu15 (antibody, human IgG1, kappa, V domains shown, humanized antibody of murine 44F7, human IgG1/kappa constant regions) VH: QVQLVQSGAEVKKPGASVKVSCKASGYTFTSYYMHWVRQAPGQGLEWMGTIYPGNGDTSYNQKFQGRVTMTRDKSTSTVYMELSSLRSEDTAVYFCARGGYYGNSLDYWGQGTLVTVSA VL: DIVMTQSPDSLAVSLGERATINCKSSQSVLNSGNQKNYLAWYQQKPGQPPKLLIYWASTRESGVPDRFSGSGSGTDFTLTISSLQAEDVAVYYCQNAYYYPFTFGQGTKLEIKR |  | 0.008 | 0.0061 | 0.27 |  |  |  |  |  |  |  |  |  |  | 
1D10 (antibody, V domains shown, murine monoclonal antibody purified from hybridoma culture supernatant; also called ID10) VH: QVQLQQPGAELVKPGASVKLSCKASGYTFTSYWMHWVKQRPGQGLEWIGMIYPNSGSINYNEKFKNKATLTVDKSSSTAYMQLSSLTSEDSAVYFCSVYFDYWGQGTTLTVSS VL: DIQGTQSPSSLSASLGERVSLTCRASQDIGSSLNWLQQEPDGTIKRLIYATSSLDSGVPKRFSVSRSGSDYSLTISSLESEDFVDYYCLQYASSPPTFGGGTKLEIK |  |  |  |  |  |  |  |  |  |  | 0.691 | 0.026 | 0.092 | 0.041 | 0.018
5F9 (antibody, V domains shown, murine monoclonal antibody purified from hybridoma culture supernatant) VH: QVQLQQSGAELVKPGASVKLSCKASGYTFTSYWMHWVKQRPGQGLEWIGMIHPNSVSTNYNEKFKSKATLTVDKSSSTAYMQLSSLTSEDSAVYYCAVYFDYWGQGTTLTVSS VL: DIQVTQSPSSLSASLGERVSLTCRASQDIGSSLNWLQQEPDGTIKRLIYASSSLNSGVPKRFSVSRSGSDYSLTISSLESEDFVDYYCLQYATSPPTFGGGTKLEIK |  |  |  |  |  |  |  |  |  |  | 0.179 | 0.068 |  | 0.714 | 0.091

From US20210403552A1 (SHANGHAI GENBASE BIOTECHNOLOGY, published 2021)
